# In US10759835B2, “Monomeric streptavidin mutants, methods of using the same and processes of manufacturing proteins” (The Research Foundation for The State University of New York, priority 2016, dated 2020):
# “And” between values parts separate entries of the source, which are not always exact repeats. Equal values may be shown once. Read-outs that look alike come from different tables or passages of the source.
# B1: mSA-RF: monomeric streptavidin mutant SEQ ID NO: 3, S25R and T48F (protein)
# chain: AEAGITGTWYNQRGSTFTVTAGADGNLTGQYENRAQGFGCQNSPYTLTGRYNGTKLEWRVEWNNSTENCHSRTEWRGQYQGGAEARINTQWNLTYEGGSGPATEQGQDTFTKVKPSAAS
# modifications: Modified streptavidin
# B2: Brad2: bradavidin 2, streptavidin homolog, SEQ ID NO: 21 (protein, listed as Bradyrhizobium japonicum)
# chain: QGLPAPSYWKNERGSELLIWSANSGTIQGTFTNHAQGFACQGIPYPAAGSVSPTGLYFVVTFAQCNSFTRWVGTIKGSQMPTSWTLFYVDNKGKPSRLKGGDIFTRVW
# Key:
# [1] = Fluorescence polarization spectroscopy, biotin dissociation rate (koff); format: binding; details: 37° C.
# Experimental: (§1) FIG. 4. In vitro characterization of purified mSA mutants. a) Stability of mSA-RF and mSA-RWT in PBS was measured by circular dichroism spectroscopy with or without biotin. b) Fluorescence polarization spectroscopy was used to measure the dissociation rate of biotin-fluorescein. The dissociation rate, koff, was computed by fitting normalized fluorescence polarization data, or bound fraction f, to an exponentially decaying function, i.e. ƒ=e^−k^off^*t The measurements were taken at 37° C. c) The equilibrium affinity of binding Kd between mSA-RF and biotin-fluorescein was measured by FP. d) mSA-S25H and mSA-RF were analyzed by size exclusion chromatography to estimate their molecular weights in solution. Each mutant eluted with a retention time that was consistent with monomeric streptavidin. The molecular weight standards (arrows) correspond to 66.0, 29.0, 12.4 and 6.5 kDa from left to right.
# The binding of biotinylated fluorescein (bf, AnaSpec) was measured using a microplate reader (SpectraMax® i3 Microplate reader from Molecular Devices) in flat bottom 96 well plates (Sterilin Ltd). To measure Kd, 100 nM bf was first mixed with titrating amounts of mSA in PBS containing 0.1 mg/ml bovine serum albumin (BSA). After overnight incubation at room temperature, the fluorescence polarization values were measured and fit to the quadratic binding equation (Hsu and Park, 2010, J Mol Graph Model, 29, 295-308). To measure the off rate (koff), 10 nM bf was first mixed with 50 nM mSA and incubated for 2 hr to form a biotin-mSA complex. To observe dissociation of bf, excess free biotin was added to a final concentration of 100 μM and recording of fluorescence was started immediately. The intensity of polarized fluorescence was measured at various time points and normalized with respect to the value at t=0 min. The intensities were fit to an exponentially decaying function e^−k^off^*t to compute koff. The dissociation half-life t1/2=0.693/koff.
# We measured the biotin dissociation rate of various mSA mutants by fluorescence polarization spectroscopy. Table 2 presents the biotin dissociation rate (koff) of various mutants measured by fluorescence polarization spectroscopy. The S25R mutation lowered koff by nearly 21 fold compared to the original mSA and 3.3 fold compared to the S25H mutant (Table 2, FIG. 4b).
# [2] = Fluorescence polarization spectroscopy, equilibrium affinity Kd; details: biotin-fluorescein, overnight incubation at room temperature, PBS 0.1 mg/ml BSA; read-out: equilibrium binding constant Kd
# Experimental: as §1, with “Each mutant eluted with a retention time that was consistent with monomeric streptavidin. The molecular weight standards (arrows) correspond to 66.0, 29.0, 12.4 and 6.5 kDa from left to right.” left out
# The binding of biotinylated fluorescein (bf, AnaSpec) was measured using a microplate reader (SpectraMax® i3 Microplate reader from Molecular Devices) in flat bottom 96 well plates (Sterilin Ltd). […] After overnight incubation at room temperature, the fluorescence polarization values were measured and fit to the quadratic binding equation (Hsu and Park, 2010, J Mol Graph Model, 29, 295-308). […] To observe dissociation of bf, excess free biotin was added to a final concentration of 100 μM and recording of fluorescence was started immediately. The intensity of polarized fluorescence was measured at various time points and normalized with respect to the value at t=0 min. […]
# [3] = Circular dichroism spectroscopy, thermal denaturation; format: physicochemical
# Experimental: as §1
# FIG. 8. Circular dichroism spectra of mSA-RF after low pH treatment to release bound biotin is shown in a). mSA-RF was first buffer exchanged to 100 mM glycine (pH 2.3) and then back to PBS (pH 7.5) before CD analysis. The spectra obtained at temperatures 30, 40, 50, 60, 70, and 80° C. were overlaid. The spectra at lower temperatures were colored darker than the spectra at higher temperatures, i.e. the darkest for 30° C. and the lightest for 80° C. The CD values at 235 nm (from FIG. 8a) were used to compute the unfolded fraction shown in b).
# FIG. 9. To evaluate the importance of the biotin additive, mSA was induced without biotin in the medium as shown in a). The culture medium was then pH adjusted to 7.5 and poured over Ni-NTA resin, which immediately turned brown (not shown). 1. Culture medium, 2. Flow through after Ni-NTA, 3. Wash, 4. Elution. The amount of purified mSA was approximately 20% of the expressed protein. (*) mSA. Thermal denaturation of mSA-RF purified with (circle) and without (square) biotin in the medium is shown in b).
# Purified mSA was diluted to 15 μM in PBS and loaded in a quartz cuvette with 1.0 mm path length. […]
# [4] = test system: HEK293 cells displaying biotinylated AP-CFP; assay: Fluorescent labeling of cell surface biotinylated receptor, confocal microscopy; format: cell-based
# From the text: FIG. 5. Fluorescent labeling of HEK293 cells displaying biotinylated receptor. a) HEK293 cells displaying biotinylated AP-CFP were labeled with Alexa488-conjugated mSA-RWT and imaged by fluorescence microscopy. Fluorescence was filtered for (i) CFP and (ii) Alexa488 and the same field of vision was imaged multiple times at regular intervals to measure the stability of labeling. iii. DIC. mSA-RWT binds only CFP positive cells, indicating high specificity of interaction. b-c) HEK293 displaying unrelated protein fused to CFP b) or untransfected HEK293 c) were treated with purified BirA and then labeled with fluorescent mSA-RWT as in part (a) (i)-(iii) the same as before. d) The captured fluorescence images of mSA-RWT—Alexa488 labeled cells (in jpg format) were loaded into MatLab and the amount of CFP and Alexa488 fluorescence was quantified by summing over pixel values. The fluorescence intensity was normalized with respect to the value at t=0. e) Cells labeled with mSA-RF—EGFP were similarly imaged and analyzed to determine the time dependent loss of mSA labeling.
# Adherent HEK293 cells were seeded in a 24 well plate (Becton Dickinson) and grown in DMEM supplemented with 10% FBS and antibiotic/antimycotic (Invitrogen). At 50% confluency, the cells were transfected with a plasmid containing pDisplay-AP-CFP-TM. After 2 days the wells were supplemented with 100 nM purified BirA, 5 mM ATP, and 0.3 mM biotin and the biotinylation reaction was carried out overnight. The following morning, the cells were detached from the wells using EDTA Solution (Versene from Life Technologies), washed with PBS containing 0.1% w/v BSA (PBSF), and fixed in 4% paraformaldehyde solution. Prior to microscopy, cells were labeled with 1 μM mSA-RWT—Alexa488 or 1 μM mSA-RF—EGFP in PBSF for 30 minutes. Excess protein was washed away and cells were switched to PBSF with 0.9 mM biotin. Each sample was mounted on slides and imaged using confocal microscopy. The same field of view was imaged every 10 min for 60 min to quantify fluorescence loss as a function of time. The captured images were analyzed with microscope software (ZEN from Zeiss, and MatLab® from MathWorks).
# We tested the use of mSA-RWT or mSA-RF in cell imaging, in which biotinylated proteins on the cell surface were labeled with Alexa488 conjugated mSA-RWT or mSA-RF fused to EGFP, and imaged by fluorescence confocal microscopy. Cell imaging is an important test of whether engineered mutants can specifically interact with biotinylated ligands in a heterogeneous environment, in which other potentially competing interactions can interfere with desired detection. […]
# To evaluate the stability of labeling, we imaged the labeled cells repeatedly over 1 hr and quantified the fluorescence intensity of Alexa488 or GFP at regular intervals. […]
# [5] = biotin; monomer at low pH and protein concentrations; cited from earlier work
Molecule,"t1/2 ([1]; dissociation half-life t1/2=0.693/koff, biotin-fluorescein)","Koff(×10^−3 min^−1) ([1]; dissociation of biotin-fluorescein, excess free biotin 100 μM)",Kd [2] [nM],denaturation temperature ([3]; after low pH treatment (100 mM glycine pH 2.3) and exchange back to PBS pH 7.5) [°C],thermal unfolding behaviour ([3]; protein purified with biotin in the medium),thermal unfolding behaviour ([3]; protein purified without biotin in the medium),"Alexa488/GFP fluorescence of labeled cells over time ([4]; after 1 hr, 900 μM biotin in the labeling solution)","labeling of cells displaying biotinylated AP-CFP ([4]; fixed HEK293 cells, 1 μM for 30 minutes)",Kd [5] [nM]
B1,6.7 h and 6.7 ± 0.3 h,1.73 ± 0.79 ×10^−3 min^−1,1.3,60,clear two state unfolding transition,does not show such transition,remained high,Only CFP positive cells were labeled selectively,–
B2,–,–,–,–,–,–,–,–,< 0.1
